For eight sequences, phosphorylation enrichment and SH2 binding enrichment results are on record in the supplement of paper PMC10065799, “High-throughput profiling of sequence recognition by tyrosine kinases and SH2 domains using bacterial peptide display” (eLife, 2023).

One data set addresses Hck (UniProt P08631). The data set is described as follows: phosphorylation enrichment, bacterial display (enrichment ratio); higher = better substrate or ligand; peptides without Tyr show the background.
A further data set deals with c-Src. The description is as above.
A further data set addresses EPHB1 (UniProt P54762). Described as above.
A further data set concerns Fer (mouse). The description is as above.
For a further data set, the target named is FGFR3 (UniProt P22607). Described as above.
The next data set deals with c-Abl (mouse). The data set is described as above.
The next data set deals with EPHB2 (UniProt P29323). Described as above.
The next data set concerns the target Fyn (UniProt P06241). Described as above.
A further data set has as its target FGFR1 (UniProt P11362). The description is as above.
Another data set has as its target Fes (UniProt P07332). Described as above.
The test system of a further data set is AncSZ. Described as above.
A further data set deals with MERTK (UniProt Q12866). The description is as above.
The target of another data set is Jak2 (UniProt O60674). The description is as above.
In a further data set the target is SHP2-C SH2. The data set is described as follows: SH2 binding enrichment of the phosphorylated peptide, bacterial display (enrichment ratio); higher = better substrate or ligand; peptides without Tyr show the background.
For another data set, the target named is Grb2 SH2 (UniProt P62993). Described as above.
For the next data set, the target named is c-Src SH2. The description is as above.
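Wherever SH2 binding enrichment of the phosphorylated peptide, bacterial display is given: peptide library displayed on the E. coli surface as eCPX fusions, selected cells deep-sequenced, score is each peptide's frequency after selection divided by its frequency in the input.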
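Wherever phosphorylation enrichment, bacterial display is given: 11-residue human phosphosite peptides and single-mutation variants displayed on the E. coli surface, counted by deep sequencing, each peptide's frequency after selection divided by its frequency in the unselected input library; frequency after pTyr selection over input frequency; kinase dosed for 20-30% of maximal phosphorylation in three min.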

FGFR3, sequence (P22607 whole entry, looked up): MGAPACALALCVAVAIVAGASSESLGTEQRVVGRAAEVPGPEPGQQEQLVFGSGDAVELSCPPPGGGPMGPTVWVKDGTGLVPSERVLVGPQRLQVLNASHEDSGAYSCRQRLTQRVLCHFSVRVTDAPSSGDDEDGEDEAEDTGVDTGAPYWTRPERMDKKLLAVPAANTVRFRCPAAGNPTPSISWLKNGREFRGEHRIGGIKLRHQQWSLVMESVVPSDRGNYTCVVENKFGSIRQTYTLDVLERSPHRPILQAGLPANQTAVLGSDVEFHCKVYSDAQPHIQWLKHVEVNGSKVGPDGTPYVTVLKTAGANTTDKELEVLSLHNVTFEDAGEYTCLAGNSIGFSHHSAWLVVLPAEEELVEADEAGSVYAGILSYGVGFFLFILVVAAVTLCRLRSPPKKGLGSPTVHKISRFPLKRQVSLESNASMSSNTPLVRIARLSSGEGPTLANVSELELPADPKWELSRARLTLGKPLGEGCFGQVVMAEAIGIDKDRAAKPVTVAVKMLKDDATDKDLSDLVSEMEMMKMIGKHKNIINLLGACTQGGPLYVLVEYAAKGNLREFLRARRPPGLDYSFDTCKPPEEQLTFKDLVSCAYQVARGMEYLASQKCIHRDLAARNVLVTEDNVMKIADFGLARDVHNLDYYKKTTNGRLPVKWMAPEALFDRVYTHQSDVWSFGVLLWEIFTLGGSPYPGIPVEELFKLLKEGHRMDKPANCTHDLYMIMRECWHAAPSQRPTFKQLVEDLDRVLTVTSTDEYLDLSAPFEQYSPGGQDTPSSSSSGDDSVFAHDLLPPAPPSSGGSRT
Hck, sequence (P08631 whole entry, looked up): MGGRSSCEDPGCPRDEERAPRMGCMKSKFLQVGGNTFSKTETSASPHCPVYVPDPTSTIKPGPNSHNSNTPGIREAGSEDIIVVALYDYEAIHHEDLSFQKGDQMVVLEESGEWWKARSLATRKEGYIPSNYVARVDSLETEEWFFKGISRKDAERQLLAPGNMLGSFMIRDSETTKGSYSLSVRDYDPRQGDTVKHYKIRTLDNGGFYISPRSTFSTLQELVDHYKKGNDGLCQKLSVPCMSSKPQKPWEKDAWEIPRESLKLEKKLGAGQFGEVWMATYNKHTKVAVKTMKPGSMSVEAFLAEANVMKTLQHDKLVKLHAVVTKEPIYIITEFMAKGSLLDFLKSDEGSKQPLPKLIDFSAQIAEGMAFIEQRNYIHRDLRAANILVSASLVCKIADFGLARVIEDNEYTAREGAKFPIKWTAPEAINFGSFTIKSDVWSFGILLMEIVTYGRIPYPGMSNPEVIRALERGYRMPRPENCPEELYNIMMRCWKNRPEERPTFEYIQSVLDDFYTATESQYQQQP
MERTK, sequence (Q12866 whole entry, looked up): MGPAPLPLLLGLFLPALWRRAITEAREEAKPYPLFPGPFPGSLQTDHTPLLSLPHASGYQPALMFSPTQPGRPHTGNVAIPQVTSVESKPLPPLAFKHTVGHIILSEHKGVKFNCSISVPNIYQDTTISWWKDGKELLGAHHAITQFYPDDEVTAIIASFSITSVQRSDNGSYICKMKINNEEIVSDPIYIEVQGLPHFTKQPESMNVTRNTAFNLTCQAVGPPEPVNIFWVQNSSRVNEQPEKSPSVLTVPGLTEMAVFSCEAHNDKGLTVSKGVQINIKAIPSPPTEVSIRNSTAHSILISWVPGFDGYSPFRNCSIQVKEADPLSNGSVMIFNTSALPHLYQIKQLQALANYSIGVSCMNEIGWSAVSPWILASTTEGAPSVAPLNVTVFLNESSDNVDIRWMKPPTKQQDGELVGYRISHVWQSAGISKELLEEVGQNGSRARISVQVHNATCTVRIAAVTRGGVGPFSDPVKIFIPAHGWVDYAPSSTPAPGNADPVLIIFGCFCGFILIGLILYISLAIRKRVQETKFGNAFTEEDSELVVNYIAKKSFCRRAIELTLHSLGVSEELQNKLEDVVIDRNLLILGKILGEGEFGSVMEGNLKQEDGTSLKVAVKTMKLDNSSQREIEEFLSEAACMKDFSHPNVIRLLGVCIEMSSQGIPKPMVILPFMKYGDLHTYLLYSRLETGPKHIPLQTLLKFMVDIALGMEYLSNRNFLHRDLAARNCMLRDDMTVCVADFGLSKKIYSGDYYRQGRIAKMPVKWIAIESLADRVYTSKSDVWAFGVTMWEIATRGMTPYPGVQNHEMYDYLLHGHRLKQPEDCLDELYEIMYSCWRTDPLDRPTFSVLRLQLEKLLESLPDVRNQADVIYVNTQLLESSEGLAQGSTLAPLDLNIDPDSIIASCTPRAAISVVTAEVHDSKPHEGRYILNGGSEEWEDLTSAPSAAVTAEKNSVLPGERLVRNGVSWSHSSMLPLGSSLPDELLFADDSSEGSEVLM
Jak2, sequence (O60674 whole entry, looked up): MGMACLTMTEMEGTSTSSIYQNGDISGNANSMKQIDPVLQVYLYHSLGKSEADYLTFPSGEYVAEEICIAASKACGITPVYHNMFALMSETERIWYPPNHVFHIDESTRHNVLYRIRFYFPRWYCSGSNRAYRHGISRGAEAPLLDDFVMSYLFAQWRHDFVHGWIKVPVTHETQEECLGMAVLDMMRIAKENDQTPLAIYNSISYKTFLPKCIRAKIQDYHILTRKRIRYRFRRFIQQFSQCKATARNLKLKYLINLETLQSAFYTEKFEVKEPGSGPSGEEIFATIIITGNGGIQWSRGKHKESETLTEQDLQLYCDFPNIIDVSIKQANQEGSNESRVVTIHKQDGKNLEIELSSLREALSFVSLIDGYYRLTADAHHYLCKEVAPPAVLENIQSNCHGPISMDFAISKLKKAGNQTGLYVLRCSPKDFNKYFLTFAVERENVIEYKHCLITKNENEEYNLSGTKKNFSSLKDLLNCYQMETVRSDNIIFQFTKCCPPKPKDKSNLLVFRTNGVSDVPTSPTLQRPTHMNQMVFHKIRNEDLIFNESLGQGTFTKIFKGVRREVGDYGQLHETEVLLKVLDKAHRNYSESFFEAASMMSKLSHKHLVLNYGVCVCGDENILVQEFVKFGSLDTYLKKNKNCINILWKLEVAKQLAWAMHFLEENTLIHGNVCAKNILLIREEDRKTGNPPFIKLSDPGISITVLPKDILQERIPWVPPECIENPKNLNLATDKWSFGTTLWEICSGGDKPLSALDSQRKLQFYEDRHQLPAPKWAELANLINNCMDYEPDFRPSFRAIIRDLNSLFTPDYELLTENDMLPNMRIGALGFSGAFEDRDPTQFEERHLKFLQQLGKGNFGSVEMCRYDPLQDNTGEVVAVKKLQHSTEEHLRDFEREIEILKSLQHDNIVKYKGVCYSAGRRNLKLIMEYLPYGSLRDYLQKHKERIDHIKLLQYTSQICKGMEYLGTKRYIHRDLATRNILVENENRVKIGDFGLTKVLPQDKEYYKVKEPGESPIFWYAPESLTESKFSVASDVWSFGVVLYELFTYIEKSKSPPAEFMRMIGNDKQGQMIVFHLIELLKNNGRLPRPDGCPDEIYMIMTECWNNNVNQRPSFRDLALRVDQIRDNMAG
Grb2 SH2, sequence (P62993 whole entry, looked up): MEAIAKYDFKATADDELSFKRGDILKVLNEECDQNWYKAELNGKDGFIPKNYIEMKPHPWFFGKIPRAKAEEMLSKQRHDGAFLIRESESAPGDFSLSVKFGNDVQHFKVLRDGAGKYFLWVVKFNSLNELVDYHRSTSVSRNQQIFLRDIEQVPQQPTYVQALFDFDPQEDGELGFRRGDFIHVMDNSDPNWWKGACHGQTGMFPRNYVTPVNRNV
EPHB2, sequence (P29323 whole entry, looked up): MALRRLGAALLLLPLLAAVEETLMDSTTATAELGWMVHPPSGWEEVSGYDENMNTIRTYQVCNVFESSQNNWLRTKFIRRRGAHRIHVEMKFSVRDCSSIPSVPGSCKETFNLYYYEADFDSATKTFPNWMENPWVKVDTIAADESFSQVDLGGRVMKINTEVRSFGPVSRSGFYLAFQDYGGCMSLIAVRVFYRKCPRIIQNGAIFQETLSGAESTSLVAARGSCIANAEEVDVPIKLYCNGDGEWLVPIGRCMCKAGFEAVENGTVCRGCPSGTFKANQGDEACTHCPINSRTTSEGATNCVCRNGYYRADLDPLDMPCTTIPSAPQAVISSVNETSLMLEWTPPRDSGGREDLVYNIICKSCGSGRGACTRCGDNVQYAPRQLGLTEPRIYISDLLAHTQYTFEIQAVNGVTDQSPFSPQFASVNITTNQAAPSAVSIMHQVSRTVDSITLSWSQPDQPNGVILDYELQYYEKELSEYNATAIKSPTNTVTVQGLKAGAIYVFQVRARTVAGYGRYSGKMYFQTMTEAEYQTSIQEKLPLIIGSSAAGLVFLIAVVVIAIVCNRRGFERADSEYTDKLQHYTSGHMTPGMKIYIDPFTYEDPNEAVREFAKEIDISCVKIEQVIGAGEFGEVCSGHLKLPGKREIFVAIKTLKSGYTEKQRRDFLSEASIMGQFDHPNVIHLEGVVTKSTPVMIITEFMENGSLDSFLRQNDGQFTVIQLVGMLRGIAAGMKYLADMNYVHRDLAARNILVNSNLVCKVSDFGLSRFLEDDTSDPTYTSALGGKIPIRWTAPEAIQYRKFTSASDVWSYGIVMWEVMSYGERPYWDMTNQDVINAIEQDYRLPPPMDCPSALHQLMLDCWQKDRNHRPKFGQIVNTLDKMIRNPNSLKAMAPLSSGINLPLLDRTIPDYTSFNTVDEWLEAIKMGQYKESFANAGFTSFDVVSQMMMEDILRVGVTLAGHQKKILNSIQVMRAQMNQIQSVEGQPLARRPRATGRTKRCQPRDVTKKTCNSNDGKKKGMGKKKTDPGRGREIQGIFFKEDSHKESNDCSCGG

As to LARDMCDKEFF [MET_Y1230_Y1230C_YF], the phosphorylation enrichment with Hck was found to be 0.653; in the data set with c-Src, 0.715; with EPHB1, 0.61; in the data set with Fer (mouse), 0.738; with FGFR3, 1.06; in the data set on c-Abl (mouse), 1.42. The phosphorylation enrichment with EPHB2 amounted to 0.816; in the data set with Fyn, 0.513; in the data set with FGFR1, 0.492; with Fes it was 2.12; in the data set with AncSZ it was 1.79; with MERTK, 0.697. Also, the phosphorylation enrichment in the data set with Jak2 came to 1.34. The SH2 binding enrichment with SHP2-C SH2 stood at 0.676; with Grb2 SH2 it was 0.778; in the data set with c-Src SH2, 0.475.

On to LAVVDYIRRQK [ATM_Y1915_M1916I], for which the phosphorylation enrichment with Hck came to 0.749; in the data set on c-Src, 1.21; with EPHB1, 0.918; in the data set with Fer (mouse), 0.839; with FGFR3, 0.92; in the data set on c-Abl (mouse), 1.37. Moreover, the phosphorylation enrichment with EPHB2 came to 1.42; with Fyn, 0.649; with FGFR1, 0.791; with Fes, 1.24; in the data set on AncSZ it was 1.06; in the data set with MERTK it was 0.863. In addition, in the data set with Jak2, the phosphorylation enrichment was 0.855. Also, the results for the SH2 binding enrichment in the data set with SHP2-C SH2, in the data set with Grb2 SH2 and with c-Src SH2 were 0.461, 0.441 and 0.338, respectively.

Turning to LDAFIYDAALL [GRIN2A_Y730_V734L], the phosphorylation enrichment with Hck was 7.57; with c-Src, 7.16; in the data set with EPHB1, 2.23; in the data set with Fer (mouse), 14.9; with FGFR3 it was 0.902; in the data set with c-Abl (mouse) it was 4.39. Further, the phosphorylation enrichment stood at 2.32 with EPHB2; 8.97 with Fyn; 0.55 in the data set with FGFR1; 1.86 in the data set with Fes; 1.44 in the data set with AncSZ; 2.28 with MERTK. Also, the phosphorylation enrichment in the data set with Jak2 turned out to be 1.33. Also, the SH2 binding enrichment with SHP2-C SH2 was found to be 0.546; in the data set with Grb2 SH2 it was 0.735; with c-Src SH2, 0.581.

For the sequence LDPMVYMNDKS [PTK2B_Y834], the phosphorylation enrichment turned out to be 0.386 with Hck; 0.669 with c-Src; 0.727 with EPHB1; 0.678 with Fer (mouse); 0.586 in the data set with FGFR3; 0.843 in the data set on c-Abl (mouse). For the same sequence, the phosphorylation enrichment with EPHB2 amounted to 0.595; with Fyn, 0.55; with FGFR1, 0.727; in the data set with Fes, 1.28; in the data set with AncSZ it was 1.09; in the data set with MERTK, 0.648. In addition, the phosphorylation enrichment in the data set with Jak2 is 1.25. The SH2 binding enrichment in the data set with SHP2-C SH2 was determined as 0.792; in the data set with Grb2 SH2 it was 2.36; with c-Src SH2, 1.01.

Regarding LEAVSYSSRFA [RNLS_Y190_YF], the phosphorylation enrichment with Hck came out at 0.463; in the data set with c-Src, 0.435; with EPHB1 it was 0.369; in the data set on Fer (mouse), 0.408; with FGFR3 it was 0.496; in the data set with c-Abl (mouse), 0.596. For the same sequence, the phosphorylation enrichment in the data set with EPHB2 came out at 0.359; with Fyn, 0.474; with FGFR1 it was 0.432; in the data set with Fes, 0.773; in the data set on AncSZ, 0.718; with MERTK, 0.399. Besides, the phosphorylation enrichment in the data set with Jak2 came out at 0.564. Moreover, the SH2 binding enrichment in the data set with SHP2-C SH2 worked out at 0.793; with Grb2 SH2, 0.777; in the data set with c-Src SH2, 0.486.

Consider LECEWYKNGVK [TTN_Y2112_P2107L], for which the phosphorylation enrichment with Hck came to 0.931; in the data set on c-Src it was 0.576; in the data set with EPHB1 it was 1.36; in the data set on Fer (mouse), 0.771; with FGFR3, 1.01; with c-Abl (mouse), 1.16. For the same sequence, the phosphorylation enrichment with EPHB2 came to 0.923; in the data set with Fyn, 0.619; in the data set with FGFR1, 0.744; in the data set with Fes, 2.16; in the data set on AncSZ it was 2.15; with MERTK, 0.921. Also, in the data set with Jak2, the phosphorylation enrichment was found to be 1.39. Besides, the SH2 binding enrichment stood at 0.48 with SHP2-C SH2, 0.613 in the data set with Grb2 SH2 and 0.322 with c-Src SH2.

Regarding LEIETYRRLLD [KRT12_Y429], the phosphorylation enrichment with Hck stood at 0.497; in the data set on c-Src it was 0.369; in the data set with EPHB1, 0.616; in the data set with Fer (mouse) it was 0.471; with FGFR3, 0.627; in the data set with c-Abl (mouse), 0.656. Also, the phosphorylation enrichment with EPHB2 stood at 0.549; with Fyn, 0.468; with FGFR1, 0.45; in the data set with Fes, 1.03; with AncSZ it was 0.854; with MERTK, 0.367. Moreover, the phosphorylation enrichment with Jak2 is 1.01. Also, the SH2 binding enrichment in the data set with SHP2-C SH2 amounted to 0.602; with Grb2 SH2, 0.762; in the data set with c-Src SH2 it was 0.473.

In the case of LFLACYFIGGG [UBD_Y161_C162F], the phosphorylation enrichment with Hck was 0.55; in the data set with c-Src, 0.647; in the data set with EPHB1, 0.773; in the data set on Fer (mouse), 0.533; with FGFR3 it was 1.05; with c-Abl (mouse), 1.03. Moreover, the phosphorylation enrichment with EPHB2 was 0.612; with Fyn, 0.502; in the data set with FGFR1, 0.453; with Fes, 1.77; in the data set on AncSZ, 1.16; with MERTK, 0.45. Also, the phosphorylation enrichment with Jak2 turned out to be 1.35. Further, the SH2 binding enrichment with SHP2-C SH2 was found to be 0.855; in the data set with Grb2 SH2, 0.861; with c-Src SH2 it was 0.793.
